In IntAct's records for PubMed 22632831:

B1: Transcription cofactor vestigial-like protein 1 (Mus musculus), Q99NC0 (parent)
chain: MEEMKKNGVWIPESSQKPVKTEWNAGSVIFTYFEGDINSMVDEHFSRALRNLKRPHKCSSSSHSDNLTLKNGVNKTRTDTSHTDRERKVESSQTENSGELKDVPVEEKGTNKSMPPNQRHLSSWTIAQPAASPENGARSSSLDEYGLKAMDQHSLSMPKTPSALPLEPWHFSSLARPGFIAPAYFPVFPDRHLTPEVYRVFPDRHLTPEVYHVFPDRHLTPEVYPDGRCGPLQHLVQQDRYQNHPLEPAARENCSPAKIAGSTGSLMNLPPYPVHYKKKICARGAASASLDDERSPSPKRRRDAYYY

Variants of: B1
Conditions: with Tead4, Q62296-1
Sequence of Tead4, Q62296-1 (Q62296 whole entry): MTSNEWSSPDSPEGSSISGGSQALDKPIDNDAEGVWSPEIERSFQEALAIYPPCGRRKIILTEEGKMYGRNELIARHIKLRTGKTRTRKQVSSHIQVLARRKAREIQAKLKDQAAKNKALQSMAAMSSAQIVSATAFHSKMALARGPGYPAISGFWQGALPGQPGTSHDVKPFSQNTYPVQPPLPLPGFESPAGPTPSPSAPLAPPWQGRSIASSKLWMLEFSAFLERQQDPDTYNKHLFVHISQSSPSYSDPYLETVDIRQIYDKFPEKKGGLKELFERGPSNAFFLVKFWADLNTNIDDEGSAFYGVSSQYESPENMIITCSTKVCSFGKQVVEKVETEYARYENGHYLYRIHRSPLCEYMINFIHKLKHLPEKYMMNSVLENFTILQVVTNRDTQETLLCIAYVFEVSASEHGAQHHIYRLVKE

effect of a mutation on the interaction	Variant
decreasing interaction strength	MEEMKKNGVWIPESSQKPVKTEWNAGSVIFTYFEGDINSMVDEAASRALRNLKRPHKCSSSSHSDNLTLKNGVNKTRTDTSHTDRERKVESSQTENSGELKDVPVEEKGTNKSMPPNQRHLSSWTIAQPAASPENGARSSSLDEYGLKAMDQHSLSMPKTPSALPLEPWHFSSLARPGFIAPAYFPVFPDRHLTPEVYRVFPDRHLTPEVYHVFPDRHLTPEVYPDGRCGPLQHLVQQDRYQNHPLEPAARENCSPAKIAGSTGSLMNLPPYPVHYKKKICARGAASASLDDERSPSPKRRRDAYYY [H44A;F45A]
